Assay results: publication PMC8683389, “The monofunctional CO dehydrogenase CooS is essential for growth of Thermoanaerobacter kivui on carbon monoxide” (Extremophiles, 2021)

Target: the molecule itself
Assay: SEC; analytical size exclusion on a calibrated Superdex 200 column, buffer B, size standards 43-440 kDa; oligomeric state of the purified complex

B1: His-CooSF1 complex of Thermoanaerobacter kivui (complex)
chain 1: MSDNYIYSAEKVIDELSRKPGFVDTAIKRWEKRDPKCGFGYKGICCRLCSNGPCRITPTQPVGICGATADTIVARNLLRAIAAGTSCYVHHCRNAANTLLSVAEGKSSYTIKDEEKLKKYAKKMGINTNKDIKRIAYEFATRVLNDLSKPYTEKAELVEKLSLPARVSTWKSLNIMPGGVNEEIIAALTKTSTNLNSDPVDMAVHCLRLGIITGIYGLELTCIMQDILLGSPKIASTYSNFGVIDQGYINLATIGGHQQVVSNRILEMASSKEWVKKAQEAGAKGFKIYGVTCVGQDYELRCASDKNSAFGGYVGNNFTQEYILGTGAIDLVFSEFNCTLPGIEPICKEYLVKQICLDDVAKKVGADLYQFQPEKADEYAAITLDEAIKAYKNRRGKVKIDVPTEKTPAMTGFTEDSIKGALGGSWKLLIDLIVKGDIKGVAGVVGCSNMAAKGHGIYGVELTKELIKRDILVLGNGCVGGNLENAGLYGLESIELAGPKLKEVCRKLNIPPVLNIGPCLSIGRIHIIAEEIAEELKVDVPQIPVVASAPQWLEEQALADGTFGVVLGLDLLLGTPPAVTGSNLITELLTSKLKDMVGARFIIEADPILGADAMESSIMERRKLLNI
chain 2: MDVKSGTKYIFADIKKCLGCRCCEQACADANGNRPYWELLGSGIPLSPNINILYIFLQDKNYPVMAQAVCRQCEDAPCVKICPVKAISVNPDGIKVIDKQRCIGCHSCSIVCPFGAVYIPDKHAVATKCTLCIERKGAEGQPACVEACPNGALQLVDTKEIGREKVKKIVSDTFSNK
notes: as the chain of m1; as the chain of m2; Written as the CooS-CooF1 unit; also called His-CooFS1; source: T. kivui pMU131_His-cooS, purified (Ni2+-NTA, Superdex 200); not shown: 10 x His, N-terminal, kept
  stoichiometry N: 6
